Measurements: paper PMC10731242, “Macromolecular crowding potently stimulates DNA supercoiling activity of Mycobacterium tuberculosis DNA gyrase” (The Journal of Biological Chemistry, 2023)

Target: T1, Mycobacterium tuberculosis DNA gyrase subunit A (Mycobacterium tuberculosis, UniProt P9WG47 1-838)
T1 construct: also called Mtb GyrA; Mtb gyrase subunit A
Assay: SEC
Conditions: both partners purified

T1 sequence (P9WG47 whole entry): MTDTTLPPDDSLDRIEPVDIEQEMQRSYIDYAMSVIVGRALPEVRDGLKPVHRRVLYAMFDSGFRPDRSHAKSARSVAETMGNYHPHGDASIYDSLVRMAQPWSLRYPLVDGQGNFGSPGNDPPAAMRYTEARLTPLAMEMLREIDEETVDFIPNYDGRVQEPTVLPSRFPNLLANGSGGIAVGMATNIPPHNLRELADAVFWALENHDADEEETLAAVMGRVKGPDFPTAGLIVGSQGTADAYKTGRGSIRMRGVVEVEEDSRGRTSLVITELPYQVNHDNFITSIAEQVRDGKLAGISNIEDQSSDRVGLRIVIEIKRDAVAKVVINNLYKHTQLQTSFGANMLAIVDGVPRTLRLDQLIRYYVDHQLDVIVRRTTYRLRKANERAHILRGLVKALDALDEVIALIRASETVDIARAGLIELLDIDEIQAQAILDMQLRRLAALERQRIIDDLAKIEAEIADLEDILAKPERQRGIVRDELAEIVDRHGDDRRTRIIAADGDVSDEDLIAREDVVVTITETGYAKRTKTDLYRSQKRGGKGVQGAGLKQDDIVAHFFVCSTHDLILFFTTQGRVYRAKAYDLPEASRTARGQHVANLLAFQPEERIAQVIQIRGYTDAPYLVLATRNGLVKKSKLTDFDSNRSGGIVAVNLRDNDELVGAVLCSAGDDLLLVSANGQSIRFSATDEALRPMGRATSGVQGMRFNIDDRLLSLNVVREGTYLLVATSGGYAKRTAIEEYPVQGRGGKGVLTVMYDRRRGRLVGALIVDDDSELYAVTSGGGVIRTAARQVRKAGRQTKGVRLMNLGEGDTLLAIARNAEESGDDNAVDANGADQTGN

B1: Mycobacterium tuberculosis DNA gyrase subunit B (enzyme)
chain: MAAQKKKAQDEYGAASITILEGLEAVRKRPGMYIGSTGERGLHHLIWEVVDNAVDEAMAGYATTVNVVLLEDGGVEVADDGRGIPVATHASGIPTVDVVMTQLHAGGKFDSDAYAISGGLHGVGVSVVNALSTRLEVEIKRDGYEWSQVYEKSEPLGLKQGAPTKKTGSTVRFWADPAVFETTEYDFETVARRLQEMAFLNKGLTINLTDERVTQDEVVDEVVSDVAEAPKSASERAAESTAPHKVKSRTFHYPGGLVDFVKHINRTKNAIHSSIVDFSGKGTGHEVEIAMQWNAGYSESVHTFANTINTHEGGTHEEGFRSALTSVVNKYAKDRKLLKDKDPNLTGDDIREGLAAVISVKVSEPQFEGQTKTKLGNTEVKSFVQKVCNEQLTHWFEANPTDAKVVVNKAVSSAQARIAARKARELVRRKSATDIGGLPGKLADCRSTDPRKSELYVVEGDSAGGSAKSGRDSMFQAILPLRGKIINVEKARIDRVLKNTEVQAIITALGTGIHDEFDIGKLRYHKIVLMADADVDGQHISTLLLTLLFRFMRPLIENGHVFLAQPPLYKLKWQRSDPEFAYSDRERDGLLEAGLKAGKKINKEDGIQRYKGLGEMDAKELWETTMDPSVRVLRQVTLDDAAAADELFSILMGEDVDARRSFITRNAKDVRFLDV
notes: also called Mtb GyrB; gyrB
binding result: binds
